Assay results: publication PMC7921949

Target: PD-L1 on CT26 murine colon cancer cells (mouse (CT26)) (UniProt Q9EP73)
Assay: flow cytometry on CT26 cells
Conditions: apparent Kd on whole cells, PBS, room temperature, 30 min, 2x10^5 CT26 cells in 250 uL, three PBS washes, Y = Bmax X/(Kd + X), n = 2

Sequence of PD-L1 on CT26 murine colon cancer cells (mouse (CT26)) (Q9EP73 19-290): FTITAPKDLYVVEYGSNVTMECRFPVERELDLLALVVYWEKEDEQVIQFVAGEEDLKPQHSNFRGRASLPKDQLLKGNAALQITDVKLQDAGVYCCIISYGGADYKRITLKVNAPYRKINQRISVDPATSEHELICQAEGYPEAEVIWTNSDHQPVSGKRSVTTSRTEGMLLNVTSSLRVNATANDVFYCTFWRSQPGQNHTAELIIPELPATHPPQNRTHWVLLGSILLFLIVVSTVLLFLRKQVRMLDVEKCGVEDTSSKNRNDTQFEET

Sequence | Kd (tetravalent, first nt at 5' end of each strand phosphorothioate in some Apt-HJ, unclear for binding assay) [nM] | Kd [nM]
CGGCGATCCGGCCATAGTGGATTGCGGGCCAGTGAAAAAAACGGGCCACATCAACTCATTGATAGACAATGCGTCCACTGCCCGT / CTCACTGGCCCGCAATCCTGAGCACGTGGCTGACGAAAAAACGGGCCACATCAACTCATTGATAGACAATGCGTCCACTGCCCGT / CCGTCAGCCACGTGCTCACCGAATGCTGCGCAACCAAAAAACGGGCCACATCAACTCATTGATAGACAATGCGTCCACTGCCCGT / CGGTTGCGCAGCATTCGGACTATGGCCGGATCGCCAAAAAACGGGCCACATCAACTCATTGATAGACAATGCGTCCACTGCCCGT [Apt-HJ (tetravalent aptamer Holliday junction)] | 145 | –
ACGGGCCACATCAACTCATTGATAGACAATGCGTCCACTGCCCGT [free PD-L1 aptamer (Apt)] | – | 283
